From publication PMC10696396, “HilE represses the activity of the Salmonella virulence regulator HilD via a mechanism distinct from that of intestinal long-chain fatty acids” (The Journal of Biological Chemistry, 2023)

T1: EYFP-HilD (Salmonella enterica, UniProt P0CL08 1-309)
T1 construct: HilD of Salmonella enterica, UniProt P0CL08; eyfp was ligated (BamHI/EheI) into the SUMO-HilD expression vector that gives the full-length HilD; EYFP is the fluorescent label used for MST detection; also called EYFP-HilD fusion protein; source: E. coli C41(DE3), purified (Ni-NTA, SUMO protease cleavage, second Ni-NTA, SEC on Superdex 200); not shown: His6-SUMO, N-terminal, cleaved; EYFP, …
T1 sequence: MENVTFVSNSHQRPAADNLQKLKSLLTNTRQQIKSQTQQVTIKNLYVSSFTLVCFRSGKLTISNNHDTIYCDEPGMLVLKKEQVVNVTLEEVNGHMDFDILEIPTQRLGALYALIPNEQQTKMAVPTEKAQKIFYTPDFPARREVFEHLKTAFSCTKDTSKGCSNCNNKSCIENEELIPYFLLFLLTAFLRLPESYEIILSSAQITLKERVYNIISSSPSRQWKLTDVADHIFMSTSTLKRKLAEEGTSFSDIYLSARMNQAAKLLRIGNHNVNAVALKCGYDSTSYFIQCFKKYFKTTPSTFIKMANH

B1: HilD NTD (residues 7-206) (domain or fragment)
chain: VSNSHQRPAADNLQKLKSLLTNTRQQIKSQTQQVTIKNLYVSSFTLVCFRSGKLTISNNHDTIYCDEPGMLVLKKEQVVNVTLEEVNGHMDFDILEIPTQRLGALYALIPNEQQTKMAVPTEKAQKIFYTPDFPARREVFEHLKTAFSCTKDTSKGCSNCNNKSCIENEELIPYFLLFLLTAFLRLPESYEIILSSAQIT
notes: a His6 tag stands in place of the first six residues of HilD; No cleavage of the His6 tag is described (no protease site, purification goes from Ni-NTA to SEC); also called HilD_(7-206) (NTD); His6-tagged HilD NTD construct; source: E. coli C41(DE3), purified (Ni-NTA, SEC on Superdex 75); not shown: His6, N-terminal, kept
B2: HilD (full-length, unfused) (natural protein)
chain: T1 sequence
notes: HilD, AraC/XylS transcription regulator of Salmonella enterica, UniProt P0CL08; Exclusively a homodimer alone by SEC-MALS; a single copy stands in the 1:1 complex with HilE; also called unlabeled HilD; unfused HilD; source: E. coli C41(DE3), purified (Ni-NTA, SUMO protease cleavage, second Ni-NTA, SEC); not shown: His6-SUMO, N-terminal, cleaved

Tests used:
[1] = target: the molecule itself; experiment: SEC-MALS; Superdex 75 Increase 10/300 GL, 50 mM NaH2PO4 pH 7.0, 200 mM NaCl, 0.5 ml/min; protein concentrations of 100 μM (Fig. 4, D and E)
EYFP-HilD [2] = target: T1, EYFP-HilD; experiment: MST; homodimerization: unlabeled HilD titrated against EYFP-HilD preincubated with 1% DMSO; MST on-time 1.5 s, 25 °C; details: both partners purified
EYFP-HilD [3] = target: T1, EYFP-HilD; experiment: MST; homodimerization: unlabeled HilD (3.05 nM to 100 μM) titrated against 50 nM EYFP-HilD; 25 °C, 0.05% Pluronic F-127, protein storage buffers; dimer to monomers; details: both partners purified

Row | Binder | stoichiometry N [1] | Kd (EYFP-HilD [2]) | Kd (EYFP-HilD [3])
1 | B1 | 2 |  | 
2 | B2 | 2 | 4.33 ± 0.72 µM | 3.85 ± 0.63 µM
